This note sets out measurements from doi:10.1101/2025.03.30.646023 (bioRxiv, 2025).

In this assay the target is SARS-CoV-2 (ancestral strain) RBD protein (SARS-CoV-2 ancestral strain, UniProt P0DTC2). In words: SPR. On the technique in general: SPR reads the build-up and loss of mass on a sensor chip optically.

B1: PRO-37587 (antibody, V domains shown)
VH: QVQLVQSGAEVKKPGSSVKVSCKASGDTSDTYTISWVRQAPGQGLEWMGRIILLSGYANYAQKIQGRVTITADKSTSTAYMELTSLRSDDTAVYYCARGFNGDYYGWGDDDAFDFWGQGTLVTVYS
VL: QTVLTQPPSVSGAPGQRVTISCTGSSSNIGAGYRVHWYQQLPGTAPKLLIAGRSNRPSGVPDRFSGSKSGTSASLAITGLQAEDEADYYCQSYDSSLFDPHWVFGGGTKLTVL
For the molecule B1, the binding result is on record as “binds”.
